From US20080098490A1

Experiments:
[1] = biological target: IL-8 receptors on human neutrophils; experiment: 125I-IL-8 binding to human neutrophils, no antibody
[2] = biological target: TNF-α receptors on U937 cells; experiment: 125I-TNF-α binding to U937 cells, no antibody
[3] = biological target: EGFR expressed on A431 cells or SW948 cells (human) (UniProt P00533); experiment: inhibition of [125I]EGF binding to A431 cells (receptor binding assay, % specific bound); blocked ligand: EGF

**Q.** “human IL-8 (from UniProt P10145 28-99) (ligand)” was tested. Which background binding in the absence of antibody [1] did it give?
**A.** 2660 cpm

**Q.** How did the background binding in the absence of antibody [2] turn out when “human tumor necrosis factor-α (from UniProt P01375 77-233) (ligand)” was run?
**A.** 4010 cpm

**Q.** With “mouse anti-human EGFR antibody 225 (Calbiochem)” as the substance, how does the IC50 (read off the curve) [3] read?
**A.** 20 nM
